Paper PMC8109789, “Phe-Gly motifs drive fibrillization of TDP-43’s prion-like domain condensates” (PLoS Biology, 2021)
Positions count from the first letter of the chain named. Names and notes keep the numbering of the source.

B1: TDP-43 prion-like domain, TDP-43(267–414) (domain or fragment, UniProt Q13148 267-414, looked up)
chain: NRQLERSGRFGGNPGGFGNQGGFGNSRGGGAGLGNNQGSNMGGGMNFGAFSINPAMMAAAQAALQSSWGMMGMLASQQNQSGPSGNNQNQGNMQREPNQAFGSGNNSYSGSNSGAAIGWGSASNAGSGSGFNGGFGSSMDSKSSGWGM
notes: Uniformly 15N or 15N/13C labelled for NMR; Fibril seeds of this molecule (from the SSNMR rotor) are the target in the cross-seeding assay; also called TDP-43 PrLD; PrLD of TDP-43; source: E. coli BL21 Star (DE3), inclusion bodies, purified (Ni-NTA in 8 M urea, PD-10 desalting at pH 4)
B2: TDP-43 PrLD variant F313A+F316A (domain or fragment, UniProt Q13148 267-414, looked up)
chain: B1 chain with F47A, F50A
notes: TDP-43 prion-like domain, residues 267-414, with the 2 central Phe residues changed to Ala; The text prints the variant once as F312A+F316A and otherwise as F313A+F316A; also called double mutant; F312A+F316A (as printed once); source: desalted from the 8 M urea-containing solution with a PD-10 column

Tests used:
[1] = molecular target: the molecule itself; assay: solution NMR, 1H-15N HSQC peak intensities over time; 55 and 110 μM TDP-43 PrLD, pH 4.0, 298 K, 1 mM CD3COOD in 85/15 H2O/D2O, no salt or RNA; first spectrum within 1 hour, second after approximately 20 hours; self-association into aggregates and droplets
[2] = molecular target: B1; assay: cross-seeding followed by ThT fluorescence; 5 μM of each protein variant in 1 mM CD3COOD with 40 μM ThT, 2% (0.12 μM) seeds of the wild-type fibrils studied by SSNMR, 25°C, excitation 450 nm, emission 480 nm; conditions: both partners purified

Question: Does B1 bind [1]?
Answer: binds

Question: Does B2 bind [2]?
Answer: binds
